Experimental data published in patent publication US6465220B1, “Glycosylation using GalNac-T4 transferase” (GlycoZym ApS, priority 1998, dated 2002).

Substrate: C[C@H](NC(=O)[C@H](C)NC(=O)[C@@H](NC(=O)[C@@H](NC(=O)[C@H](CCC(=O)O)NC(=O)[C@@H]1CCCN1C(=O)[C@@H]1CCCN1C(=O)[C@H](C)NC(=O)[C@H](CO)NC(=O)[C@H](CO)NC(=O)[C@H](CO)NC(=O)[C@@H]1CCCN1C(=O)[C@@H]1CCCN1C(=O)[C@H](C)NC(=O)[C@@H]1CCCN1C(=O)[C@@H](NC(=O)[C@@H](NC(=O)[C@H](C)NC(=O)[C@H](CO)NC(=O)[C@@H]1CCCN1C(=O)[C@@H](NC(=O)[C@@H]1CCCN1C(=O)[C@@H]1CCCN1C(=O)[C@@H](N)CS)[C@@H](C)O)[C@@H](C)O)[C@@H](C)O)[C@@H](C)O)[C@@H](C)O)C(=O)O
Assay: GalNAc-transferase assay with purified recombinant GalNAc-T1
Format: biochemical, human
Settings: other: acceptor substrate; pH 7.5
Description: The following examples are provided to illustrate certain preferred embodiments of the invention, and should be considered as illustration and not as limitation. In the examples, GalNAc-transferase assays were performed in 50 μl total reaction mixtures containing 25 mM cacodylate (pH 7.5), 10 mM MnCl2, 0.1-0.25% Triton X-100, 150-200 μM UDP-[^14C]-GalNAc (4,000 cpm/nmole) (Amersham) and 0.06-1 mM acceptor peptides. Peptides were either synthesized or obtained from Carlbiotech (Copenhagen), or Neosystems (Strasbourg), and quality was ascertained by amino acid analysis and mass spectrometry. Peptides Muc-1a, Muc-1b, and TAP24, were derived from the tandem repeat of human MUC1, Gendler et al., J. Biol. Chem. 265:15286 (1990), and Muc2, Muc5AC, and Muc7 from the tandem repeats of MUC2, MUC5AC, and MUC7, respectively. Gum et al., J. Biol. Chem. 264:6480 (1989); Porchet et al., Biochem. Soc. Trans. 23:800 (1995); Bobek et al., J. Biol. Chem. 268:20563 (1993). GalNAc4TAP24 was produced by in vitro glycosylation using GalNAc-T2 as described in Wandall et al., J. Biol. Chem. 272:23503 (1997). Products were quantified by scintillation counting after chromatography on Dowex-1, octadecyl silica cartridges (Bakerbond), or HPLC (PC3.2/3 or mRPC C2/C18 SC2.1/10 Pharmacia, Smart System). Products produced by in vitro glycosylation were in most cases also confirmed by mass spectrometry. […]

B1: GalNAc-T1 (Homo sapiens) (protein)
chain: GLPAGDVLEPVQKPHEGPGEMGKPVVIPKEDQEKMKEMFKINQFNLMASEMIALNRSLPDVRLEGCKTKVYPDNLPTTSVVIVFHNEAWSTLLRTVHSVINRSPRHMIEEIVLVDDASERDFLKRPLESYVKKLKVPVHVIRMEQRSGLIRARLKGAAVSKGQVITFLDAHCECTVGWLEPLLARIKHDRRTVVCPIIDVISDDTFEYMAGSDMTYGGFNWKLNFRWYPVPQREMDRRKGDRTLPVRTPTMAGGLFSIDRDYFQEIGTYDAGMDIWGGENLEISFRIWQCGGTLEIVTCSHVGHVFRKATPYTFPGGTGQIINKNNRRLAEVWMDEFKNFFYIISPGVTKVDYGDISSRVGLRHKLQCKPFSWYLENIYPDSQIPRHYFSLGEIRNVETNQCLDNMARKENEKVGIFNCHGMGGNQVFSYTANKEIRTDDLCLDVSKLNGPVTMLKCHHLKGNQLWEYDPVKLTLQHVNSNQCLDKATEEDSQVPSIRDCNGSRSQQWLLRNVTLPEIF
notes: Control constructs pAcGP67-GalNAc-T1-sol, pAcGP67-GalNAc-T2-sol, pAcGP67-GalNAc-T3-sol, and pAcGP67-O^2-sol were prepared as previously described; made in house; host or cells: insect cells (baculovirus, pAcGP67)
- Km: 40 µM
- Vmax: 0.76 nmol/min/µg
